Results reported in patent US20230265151A1, “GIP/GLP1 CO-AGONIST COMPOUNDS” (priority 2020, published 2023).
*1 amine or outer side, *2 acyl side, *3 side chain or, on linkers, in order; H or OH if unused. Where no end group is shown, it is not given here. Side-chain parts run from the residue outwards. [ ]: non-standard residue; d: D form. The star is where a group is joined. Decanoyl(10-(4-HOOC-PhO)) = O=C(O)c1ccc(OCCCCCCCCCC(=O)*)cc1; αMePhe(2-F) = C[C@](N)(Cc1ccccc1F)C(=O)O; γGlu = O=C(O)[C@H](CCC(=O)[*:2])N[*:1]; αMeY = C[C@](N)(Cc1ccc(O)cc1)C(=O)O; αMeL = CC(C)C[C@](C)(N)C(=O)O; Orn = NCCC[C@H](N)C(=O)O; AEEA = NCCOCCOCC(=O)O; Aib = CC(C)(N)C(=O)O

What was measured:
Assay in all cases: cell-based or functional assay
hGLP-1R = hGLP-1R (Homo sapiens, UniProt P43220)
[1] = molecular target: T1, human GIP receptor (human) (UniProt P48546)
T1 sequence (looked up): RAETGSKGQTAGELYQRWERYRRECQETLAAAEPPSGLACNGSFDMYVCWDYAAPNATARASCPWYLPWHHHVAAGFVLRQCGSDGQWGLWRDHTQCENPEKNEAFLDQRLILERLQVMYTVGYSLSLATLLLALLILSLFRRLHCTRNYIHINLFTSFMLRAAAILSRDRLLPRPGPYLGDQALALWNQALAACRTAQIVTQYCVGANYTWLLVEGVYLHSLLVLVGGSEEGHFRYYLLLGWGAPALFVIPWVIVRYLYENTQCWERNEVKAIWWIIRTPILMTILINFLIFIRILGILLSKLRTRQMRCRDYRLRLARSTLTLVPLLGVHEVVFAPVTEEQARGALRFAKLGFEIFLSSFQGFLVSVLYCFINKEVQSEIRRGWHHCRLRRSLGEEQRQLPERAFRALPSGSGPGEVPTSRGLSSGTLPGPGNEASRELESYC

[2] = molecular target: human glucagon receptor (human) (UniProt P47871)
human GIP receptor = molecular target: T2, human GIP receptor (human, UniProt P48546 22-466)
T2 sequence (looked up): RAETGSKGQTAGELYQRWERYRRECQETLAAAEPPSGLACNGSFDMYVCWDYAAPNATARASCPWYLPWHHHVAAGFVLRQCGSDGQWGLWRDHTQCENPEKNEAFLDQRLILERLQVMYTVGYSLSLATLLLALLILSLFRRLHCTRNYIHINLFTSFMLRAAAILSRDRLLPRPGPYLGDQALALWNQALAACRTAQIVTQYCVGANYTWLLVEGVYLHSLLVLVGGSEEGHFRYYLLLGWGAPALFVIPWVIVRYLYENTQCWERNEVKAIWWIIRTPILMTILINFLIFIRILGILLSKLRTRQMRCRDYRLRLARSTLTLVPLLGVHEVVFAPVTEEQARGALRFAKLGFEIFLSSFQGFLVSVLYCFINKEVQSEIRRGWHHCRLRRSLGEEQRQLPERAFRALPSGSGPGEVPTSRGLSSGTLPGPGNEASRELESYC

human GLP-1 receptor = human GLP-1 receptor (human, UniProt P43220 24-463)
human glucagon receptor = human glucagon receptor (human, UniProt P47871 26-477)

B1: Example 302 (peptide)
peptide: YXEGTXTSDYXIXLDXKAQXEFIXXLIEGGPSSGAPPPSK
modifications: Y-Aib-EGT-αMeF(2F)-TSDY-Aib-I-αMeL-LD-Orn-K((2-[2-(2-Amino-ethoxy)-ethoxy]-acetyl)2-(γ-Glu)-CO-(CH2)10-CH3)AQ-Aib-EFI-(D-Glu)-αMeY-LIEGGPSSGAPPPSK((2-[2-(2-Amino-ethoxy)-ethoxy]-acetyl)2-(γ-Glu)-CO-(CH2)10-CH3)-NH2
cAMP EC50 (hGLP-1R): 0.0917 nM | cAMP Emax (hGLP-1R): 103% | cAMP EC50 [1]: 0.00916 nM | cAMP Emax [1]: 100% | cAMP EC50 [2]: > 9950 nM | cAMP EC50 (1.0% HSA) (human GIP receptor): 0.453 nM | cAMP EC50 (1.0% HSA) (human GLP-1 receptor): 6.55 nM | cAMP Emax (1.0% HSA) (human GLP-1 receptor): 99.4% | cAMP EC50 (1.0% HSA) (human glucagon receptor): > 9950 nM

B2: Example 324 (peptide)
peptide: YXEGTXTSDXXIXLDXKAQXEFIXXLIEGGPSSGAPPPSK
modifications: Y-Aib-EGT-αMeF(2F)-TSD-4Pal-Aib-I-αMeL-LD-Orn-K((2-[2-(2-Amino-ethoxy)-ethoxy]-acetyl)2-(γ-Glu)-CO-(CH2)10-CH3)AQ-Aib-EFI-(D-Glu)-αMeY-LIEGGPSSGAPPPSK((2-[2-(2-Amino-ethoxy)-ethoxy]-acetyl)2-(γ-Glu)-CO-(CH2)10-CH3)-NH2
cAMP EC50 (hGLP-1R): 0.0647 nM | cAMP Emax (hGLP-1R): 97.6% | cAMP EC50 [1]: 0.00632 nM | cAMP Emax [1]: 101% | cAMP EC50 [2]: > 9950 nM | cAMP EC50 (1.0% HSA) (human GIP receptor): 0.321 nM | cAMP EC50 (1.0% HSA) (human GLP-1 receptor): 4.38 nM | cAMP Emax (1.0% HSA) (human GLP-1 receptor): 99.4% | cAMP EC50 (1.0% HSA) (human glucagon receptor): > 9950 nM

Y[Aib]EGT[αMePhe(2-F)]TSDV[Aib]I[αMeL]LD[Orn]IAQ[Aib]K([AEEA-AEEA-γGlu-Decanoyl(10-(4-HOOC-PhO))])FI[dE][αMeY]LIK([AEEA-AEEA-γGlu-Decanoyl(10-(4-HOOC-PhO))])GGPSSGAPPPS-NH2 [Example 330]
cAMP EC50 (hGLP-1R): 0.477 nM | cAMP Emax (hGLP-1R): 103% | cAMP EC50 [1]: 0.0185 nM | cAMP Emax [1]: 112% | cAMP EC50 [2]: > 9950 nM | cAMP EC50 (1.0% HSA) (human GIP receptor): 6.26 nM | cAMP Emax (1.0% HSA) (human GIP receptor): 103% | cAMP EC50 (1.0% HSA) (human GLP-1 receptor): 85.2 nM | cAMP Emax (1.0% HSA) (human GLP-1 receptor): 85% | cAMP EC50 (1.0% HSA) (human glucagon receptor): > 9950 nM

B3: Example 298 (peptide)
peptide: YXEGTXTSDXSIXLDXKAQXKFIXXLIXGGPSSGAPPPS
modifications: Y-Aib-EGT-αMeF(2F)-TSD-4Pal-SI-αMeL-LD-Orn-K((2-[2-(2-Amino-ethoxy)-ethoxy]-acetyl)2-(γ-Glu)-CO-(CH2)10-CH3)AQ-Aib-K((2-[2-(2-Amino-ethoxy)-ethoxy]-acetyl)2-(γ-Glu)-CO-(CH2)10-CH3)FI-(D-Glu)-αMeY-LI-Orn-GGPSSGAPPPS-NH2
cAMP EC50 (hGLP-1R): 0.19 nM | cAMP Emax (hGLP-1R): 106% | cAMP Emax [1]: 97.4% | cAMP EC50 [2]: > 9950 nM | cAMP EC50 (1.0% HSA) (human GIP receptor): 0.237 nM | cAMP Emax (1.0% HSA) (human GIP receptor): 95% | cAMP EC50 (1.0% HSA) (human GLP-1 receptor): 3.64 nM | cAMP EC50 (1.0% HSA) (human glucagon receptor): > 9950 nM

B4: Example 331 (peptide)
peptide: YXEGTXTSDXXIXLDXIAQXKFIXXLIKGGPSSGAPPPS
modifications: Y-Aib-EGT-αMeF(2F)-TSD-4Pal-Aib-I-αMeL-LD-Orn-IAQ-Aib-K(2-[2-(2-Amino-ethoxy)-ethoxy]-acetyl)2-(γ-Glu)-(11-(4-carboxyphenoxy)undecanoyl)FI-(D-Glu)-αMeY-LIK((2-[2-(2-Amino-ethoxy)-ethoxy]-acetyl)2-(γ-Glu)-(11-(4-carboxyphenoxy)undecanoyl)GGPSSGAPPPS-NH2)
cAMP EC50 (hGLP-1R): 0.436 nM | cAMP Emax (hGLP-1R): 99.6% | cAMP EC50 [1]: 0.0113 nM | cAMP Emax [1]: 101% | cAMP EC50 [2]: > 9950 nM | cAMP EC50 (1.0% HSA) (human GIP receptor): 8.31 nM | cAMP EC50 (1.0% HSA) (human GLP-1 receptor): 223 nM | cAMP Emax (1.0% HSA) (human GLP-1 receptor): 114% | cAMP EC50 (1.0% HSA) (human glucagon receptor): > 9950 nM

B5: Example 299 (peptide)
peptide: YXEGTXTSDXSIXLDXKAQXXFIXXLIKGGPSSGAPPPS
modifications: Y-Aib-EGT-αMeF(2F)-TSD-4Pal-SI-αMeL-LD-Orn-K((2-[2-(2-Amino-ethoxy)-ethoxy]-acetyl)2-(γ-Glu)-CO-(CH2)10-CH3)AQ-Aib-Orn-FI-(D-Glu)-αMeY-LIK((2-[2-(2-Amino-ethoxy)-ethoxy]-acetyl)2-(γ-Glu)-CO-(CH2)10-CH3)GGPSSGAPPPS-NH2
cAMP EC50 (hGLP-1R): 0.126 nM | cAMP Emax (hGLP-1R): 103% | cAMP EC50 [1]: 0.0104 nM | cAMP Emax [1]: 101% | cAMP EC50 [2]: > 9950 nM | cAMP EC50 (1.0% HSA) (human GIP receptor): 0.204 nM | cAMP EC50 (1.0% HSA) (human GLP-1 receptor): 2.58 nM | cAMP Emax (1.0% HSA) (human GLP-1 receptor): 102% | cAMP EC50 (1.0% HSA) (human glucagon receptor): > 9950 nM

B6: Example 319 (peptide)
peptide: YXEGTXTSDVXIXLDXKAQXKFIXXLIEGGPSSGAPPPS
modifications: Y-Aib-EGT-αMeF(2F)-TSDV-Aib-I-αMeL-LD-Orn-K((2-[2-(2-Amino-ethoxy)-ethoxy]-acetyl)2-(γ-Glu)-(10-(4-carboxyphenoxy)decanoyl))AQ-Aib-K((2-[2-(2-Amino-ethoxy)-ethoxy]-acetyl)2-(γ-Glu)-(10-(4-carboxyphenoxy)decanoyl))FI-(D-Glu)-αMeY-LIEGGPSSGAPPPS-NH2
cAMP EC50 (hGLP-1R): 0.18 nM | cAMP Emax (hGLP-1R): 100% | cAMP EC50 [1]: 0.0196 nM | cAMP Emax [1]: 98.1% | cAMP EC50 [2]: > 9950 nM | cAMP EC50 (1.0% HSA) (human GIP receptor): 3.35 nM | cAMP EC50 (1.0% HSA) (human GLP-1 receptor): 28.1 nM | cAMP Emax (1.0% HSA) (human GLP-1 receptor): 114% | cAMP EC50 (1.0% HSA) (human glucagon receptor): > 9950 nM
